Molecular target: monkey Mpl (on BaF3-monkey Mpl cells) (monkey)

EC50 (read off the curve) [B) BaF-monkey Mpl]: 10 pM
Substance: hTPO (ligand)
